# Marks after values point to notes of the source that are not given here.
# Columns and labels:
# Glu107 [1] = test: other (circular dichroism); conditions: 25 °C; 50 mM NaCl; none stated; 30 µM protein in 50 mM NaCl titrated with 0.05-0.1 M HCl or NaOH; transition between the more structured form (MSF) and the less structured form (LSF) of the double mutant
# Glu105 = test: NMR; conditions: 25 °C, not stated for the titration samples, folded, more structured form (MSF), signals were lost above pH 6.4 because the population of the structured form is low there
# Glu87 = test: NMR; conditions: 25 °C, not stated for the titration samples, folded, more structured form (MSF), signals were lost above pH 6.4 because the population of the structured form is low there
# Glu83 = test: NMR; conditions: 25 °C, not stated for the titration samples, folded, more structured form (MSF), signals were lost above pH 6.4 because the population of the structured form is low there
# Glu63 = test: NMR; conditions: 25 °C, not stated for the titration samples, folded, more structured form (MSF), signals were lost above pH 6.4 because the population of the structured form is low there
# Glu107 [2] = test: NMR; conditions: 25 °C, not stated for the titration samples, folded, more structured form (MSF), signals were lost above pH 6.4 because the population of the structured form is low there
# Glu68 = test: NMR; conditions: 25 °C, not stated for the titration samples, folded, more structured form (MSF), signals were lost above pH 6.4 because the population of the structured form is low there
# Glu28 = test: NMR; conditions: 25 °C, not stated for the titration samples, folded, more structured form (MSF), signals were lost above pH 6.4 because the population of the structured form is low there
# Glu38 = test: NMR; conditions: 25 °C, not stated for the titration samples, folded, more structured form (MSF), signals were lost above pH 6.4 because the population of the structured form is low there
# Glu104 = test: NMR; conditions: 25 °C, not stated for the titration samples, folded, more structured form (MSF), signals were lost above pH 6.4 because the population of the structured form is low there
Substance,pKa (Glu107 [1]),pKa (Glu105),pKa (Glu87),pKa (Glu83),pKa (Glu63),pKa (Glu107 [2]),pKa (Glu68),pKa (Glu28),pKa (Glu38),pKa (Glu104)
"DraK histidine kinase, extracellular sensor domain (ESD), E83L/E105L double mutant (Streptomyces coelicolor A3(2); E83L;E105L)",8.1*,,,,,,,,,
"DraK histidine kinase, extracellular sensor domain (ESD), wild type (Streptomyces coelicolor A3(2))",,5.5,3.7,5.3,4.5,above 6.4,4.5,3.9,4.3,4.6

# From publication PMC4159317
